Laboratory results reported in article PMC7170532 (2020).

T1: pro-myostatin (uncleavable precursor, D99A/R263A/R266A) (human, UniProt O14793 24-375, D99A | R263A | R266A)
T1 sequence: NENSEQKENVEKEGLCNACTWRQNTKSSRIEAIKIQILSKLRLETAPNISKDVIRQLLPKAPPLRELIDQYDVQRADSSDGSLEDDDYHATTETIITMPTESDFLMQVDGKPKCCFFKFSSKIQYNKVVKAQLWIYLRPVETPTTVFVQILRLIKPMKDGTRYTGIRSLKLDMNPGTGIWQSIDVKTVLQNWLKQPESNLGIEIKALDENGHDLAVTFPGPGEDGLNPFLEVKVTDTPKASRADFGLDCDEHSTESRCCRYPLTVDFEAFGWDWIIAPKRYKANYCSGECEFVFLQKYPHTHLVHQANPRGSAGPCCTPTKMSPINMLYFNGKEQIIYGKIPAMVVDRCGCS


Assays:
[1] = biological target: latent myostatin (human, UniProt O14793 267-375); test: BLI
[2] = biological target: T1, pro-myostatin (uncleavable precursor, …); test: BLI

Kd [1] [nM] | Kd [2] [nM] | Binder
< 0.001 | < 0.001 | 29H4-16 human IgG4 (antibody, V domains shown) VH: QIQLVQSGGGVVQPGRSLRLSCAASGFTFSSYGMHWVRQAPGKGLEWVAVISYDGSRKYYADSVKGRFTISRDNSKNTLYLQMNSLRAEDTAVYYCARDLLVRFLYWSHYYGMDVWGQGTTVTVSS VL: QPVLTQPPSASGTPGQRVTISCSGSSSNIGSNPVHWYQQLPGTAPKLLIYDDNQRPSGVPDRFSGSKSGTSASLVISGLQSDDEADYYCAAWDDSLNSVFGGGTKLTVL
1.76 | 1.51 | 29H4-16 Fab (Fab, V domains shown) VH: QIQLVQSGGGVVQPGRSLRLSCAASGFTFSSYGMHWVRQAPGKGLEWVAVISYDGSRKYYADSVKGRFTISRDNSKNTLYLQMNSLRAEDTAVYYCARDLLVRFLYWSHYYGMDVWGQGTTVTVSS VL: QPVLTQPPSASGTPGQRVTISCSGSSSNIGSNPVHWYQQLPGTAPKLLIYDDNQRPSGVPDRFSGSKSGTSASLVISGLQSDDEADYYCAAWDDSLNSVFGGGTKLTVL
